Biological target: NB-protein (BchN-BchB α2β2 heterotetramer), electron acceptor component of Rhodobacter sphaeroides DPOR (Rhodobacter sphaeroides)
Assay: cryo-EM structure

L-protein (BchL homodimer), electron donor component of Rhodobacter sphaeroides DPOR, sequence (Q9RFD6 whole entry): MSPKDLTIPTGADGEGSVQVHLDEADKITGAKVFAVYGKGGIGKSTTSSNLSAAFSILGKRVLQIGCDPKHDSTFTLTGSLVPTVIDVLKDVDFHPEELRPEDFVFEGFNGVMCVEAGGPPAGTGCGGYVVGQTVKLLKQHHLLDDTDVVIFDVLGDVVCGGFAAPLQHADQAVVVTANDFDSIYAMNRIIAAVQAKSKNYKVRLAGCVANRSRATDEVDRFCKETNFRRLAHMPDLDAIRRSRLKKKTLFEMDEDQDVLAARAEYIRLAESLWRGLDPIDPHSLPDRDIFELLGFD

“L-protein (BchL homodimer), electron donor component of Rhodobacter sphaeroides DPOR (from UniProt Q9RFD6 1-297) (enzyme)” was tested, and the stoichiometry N (L-protein dimer per NB-protein tetramer) was 1 and the stoichiometry N (L-protein dimers per NB-protein tetramer) was 2.

Reference: paper doi:10.1101/2024.04.26.590571
